Measured values: IntAct's records for PubMed 17891154

Molecular target: vps29_human VPS29 (UniProt Q9UBQ0)

Substance | effect of a mutation on the interaction
Vacuolar protein sorting-associated protein 35 (Homo sapiens) (from UniProt Q96QK1) F534D;F541D | disrupting interaction strength
Vacuolar protein sorting-associated protein 35 (Homo sapiens) (from UniProt Q96QK1) H769A;N772A;H776A | disrupting interaction strength
Vacuolar protein sorting-associated protein 35 (Homo sapiens) (from UniProt Q96QK1) L579D;R582D;Q586A;L589D | disrupting interaction strength
Vacuolar protein sorting-associated protein 35 (Homo sapiens) (from UniProt Q96QK1) N725A;Y729A | disrupting interaction strength
Vacuolar protein sorting-associated protein 35 (Homo sapiens) (from UniProt Q96QK1) T629D;L630A;G633D;R637D | disrupting interaction strength
Vacuolar protein sorting-associated protein 35 (Homo sapiens) (from UniProt Q96QK1) T672D;H675D | disrupting interaction strength
